Laboratory results taken from US20220204629A1 (NEW YORK UNIVERSITY, published 2022).

How the values were obtained:
[1] = molecular target: human Galectin-9 CRD2 L279A mutant (human, UniProt O00182 218-355, immobilised on streptavidin coated beads (biotinylated)); test: mutant on streptavidin beads, G9.2-17 titrated
Protocol: (§1) FIG. 17 depicts a bar graph showing the results of epitope mapping studies of gal-9 CRD2 using alanine scanning to characterize G9.2-17 binding. Galectin-9 CRD2 mutants were generated using site-directed mutagenesis. Mutants were immobilized onto streptavidin coated beads and G9.2-17 was titrated to generate a saturation curve. KD values were calculated by fitting curves to Michaelis Menton kinetics. ΔΔG values of binding for each mutant versus wild-type galectin shown. Arrows indicate values that are outside the limit of detection for the assay. Higher ΔΔG values represent greater contribution to G9.2-17 epitope. Mutations were mapped onto the surface of gal CRD2 crystal structure (PDB 3nv4).
(§2) To determine the epitope of G9.2-17 on galectin-9 CRD2, we first mutated residues in several positions throughout CRD2 including R239, which is crucial for carbohydrate binding (Zhu et al., 2005). Only one mutation, W277K, decreased G9.2-17 binding. […] To further map the binding patch of G9.2-17, residues that are spatially adjacent to W277 were mutated to alanine and their binding was assessed. W277A and L279A result in complete abrogation of G9.2-17 binding in our assay. […] These residues are located adjacent in space in the beta-sheet, and form a patch on the back side of CRD2 relative to its carbohydrate recognition site.

[2] = molecular target: human Galectin-9 CRD2 W277A mutant (human, UniProt O00182 218-355, immobilised on streptavidin coated beads (biotinylated)); test: mutant on streptavidin beads, G9.2-17 titrated
Sequence of human Galectin-9 CRD2 W277A mutant (O00182 218-355 W309A): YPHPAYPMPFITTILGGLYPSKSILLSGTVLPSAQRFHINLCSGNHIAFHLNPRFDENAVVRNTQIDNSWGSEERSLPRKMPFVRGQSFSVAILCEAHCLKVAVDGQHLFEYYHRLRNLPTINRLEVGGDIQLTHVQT
Protocol: as §1, §2

[3] = molecular target: T1, human Galectin-9 CRD2 (residues 218-355) (human, UniProt O00182 218-355, biotinylated in vitro with BirA at the Avitag (where immobilised)); test: biolayer interferometry, G9.2-17 captured on anti-Fab probes, human gal-9 CRD2 in solution, global fit
T1 construct: also called human gal-9 CRD2; wild-type Galectin-9 CRD2; not shown: N-terminal hexahistidine tag, Avitag and TEV cleavage site of the pHBT vector
T1 sequence (O00182 218-355 limits assumed): as the sequence (O00182 218-355 W309A) above, with A92W counted along it
Protocol: (§3) FIGS. 16A-16D include graphs showing biolayer interferometry analysis to measure binding affinity to human (FIG. 16A), mouse (FIG. 16B), primate (FIG. 16C) or rat (FIG. 16D) gal-9 CRD2. G9.2-17 was captured onto anti-Fab probes and incubated either recombinant human, mouse, primate or rat gal-9 CRD2. Global fit, shown in black line, was used to calculate the dissociation constants. Representative data from triplicate runs shown.

[4] = molecular target: T2, cynomolgus monkey galectin-9 CRD2 (cynomolgus monkey, UniProt A0A7N9IHL9 218-355); test: biolayer interferometry, G9.2-17 captured on anti-Fab probes, primate gal-9 CRD2 in solution, global fit
T2 construct: domain: CRD2; Only two short stretches of a macaque protein are given; also called CRD2 domain of cynomolgus galectin-9; primate gal-9 CRD2
Protocol: as §3

[5] = molecular target: T3, human Galectin-9 CRD1 (residues 1-148) (human, UniProt O00182 1-148, biotinylated in vitro with BirA at the Avitag); test: bead assay, flow cytometry: biotinylated Galectin-9 CRD1 on streptavidin beads, G9.2-17 human IgG4 titrated
T3 construct: also called CRD1 domain of galectin-9; not shown: Avitag left upstream after thrombin cleavage of the GST fusion (pGEX)
T3 sequence (O00182 1-148): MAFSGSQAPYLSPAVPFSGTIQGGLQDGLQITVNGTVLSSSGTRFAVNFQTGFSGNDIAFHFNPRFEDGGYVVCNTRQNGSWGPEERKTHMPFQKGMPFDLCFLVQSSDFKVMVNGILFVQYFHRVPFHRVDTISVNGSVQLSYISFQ
Source text: For further characterization, one clone, […] (a human IgG4 molecule) was screened for CRD specificity. Biotinylated Galectin-9 CRD1 or CRD2 was immobilized onto streptavidin-coated magnetic beads. The beads were blocked with excess biotin, followed by titration of the G9.2-17 human IgG4 antibody. The beads were then stained and quantified via flow cytometry.

[6] = molecular target: T2, cynomolgus monkey galectin-9 CRD2; test: bead based binding, cynomolgus CRD2
rat galectin-9 CRD2 [7] = molecular target: T4, rat galectin-9 CRD2 (rat, UniProt P97840 226-354, limits assumed); test: bead based binding, rat CRD2
T4 construct: domain: CRD2; Only two short stretches of the rat protein are given; also called CRD2 domain of rat galectin-9; rat gal-9 CRD2
T4 sequence (P97840 226-354 limits assumed): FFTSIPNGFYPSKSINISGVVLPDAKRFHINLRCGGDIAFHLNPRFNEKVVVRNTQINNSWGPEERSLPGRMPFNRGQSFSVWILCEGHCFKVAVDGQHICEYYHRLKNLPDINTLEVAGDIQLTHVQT

rat galectin-9 CRD2 [8] = molecular target: T4, rat galectin-9 CRD2; test: biolayer interferometry, G9.2-17 captured on anti-Fab probes, rat gal-9 CRD2 in solution, global fit
Protocol: as §3

[9] = molecular target: T1, human Galectin-9 CRD2 (residues 218-355); test: ELISA, antibody titrated over immobilized human CRD2
[10] = molecular target: T1, human Galectin-9 CRD2 (residues 218-355); test: bead based binding, human CRD2
[11] = molecular target: T3, human Galectin-9 CRD1 (residues 1-148); test: bead based binding
[12] = molecular target: T3, human Galectin-9 CRD1 (residues 1-148); test: bead-based binding assay
Protocol: The affinities of the antibodies were assessed using a bead-based assay as previously described (Nishikori et al., J Mol Biol, 2012, 424, 391-399) and surface plasmon resonance (SPR). In the bead-based assay, a biotinylated protein (either a Galectin-9 sample or a Fab sample) was immobilized on streptavidin-coated Dynabeads M280 via the biotin-streptavidin interaction. After blocking the excess biotin-binding sites on the beads using unconjugated biotin, binding titration was performed by incubating the second component (i.e., Fab for immobilized Galectin-9 or vice versa), followed by quantification using a dye-labeled neutravidin (ThermoFisher) and flow cytometry analysis. In experiments where the second component is an IgG, a dye-labeled anti-human IgG or anti-mouse IgG antibody was used for detection.
The binding activity of clone G9.1-8m13 is evaluated using conventional methods.

Sequence of human Galectin-9 CRD2 L279A mutant (O00182 218-355 L311A): as the sequence (O00182 218-355 W309A) above, with A92W, L94A counted along it

B1: G9.2-17 human IgG4 (antibody, V domains shown)
VH: EVQLVESGGGLVQPGGSLRLSCAASGFTVSSSSIHWVRQAPGKGLEWVAYISSSSGYTYYADSVKGRFTISADTSKNTAYLQMNSLRAEDTAVYYCARYWSYPSWWPYRGMDYWGQGTLVTVSS
VL: DIQMTQSPSSLSASVGDRVTITCRASQSVSSAVAWYQQKPGKAPKLLIYSASSLYSGVPSRFSGSRSGTDFTLTISSLQPEDFATYYCQQSSTDPITFGQGTKVEIKR
notes: also called G9.2-17 hIgG4; G9.2-17 IgG4
binding result [1]: no binding
binding result [2]: no binding
Kd [3]: 0.183 nM
Kd [4]: 0.615 nM
binding result [5]: no binding (tested: 50 nM)
Kd [6]: 0.31 nM
Kd (rat galectin-9 CRD2 [7]): 0.31 nM
Kd (rat galectin-9 CRD2 [8]): 2.71 nM
Kd [9]: 0.42 nM
Kd [10]: 0.15 nM

B2: G9.2-17 mIgG1 (antibody, V domains shown)
VH: EVQLVESGGGLVQPGGSLRLSCAASGFTVSSSSIHWVRQAPGKGLEWVAYISSSSGYTYYADSVKGRFTISADTSKNTAYLQMNSLRAEDTAVYYCARYWSYPSWWPYRGMDYWGQGTLVTVSS
VL: DIQMTQSPSSLSASVGDRVTITCRASQSVSSAVAWYQQKPGKAPKLLIYSASSLYSGVPSRFSGSRSGTDFTLTISSLQPEDFATYYCQQSSTDPITFGQGTKVEIKR
notes: also called mouse IgG1 version of G9.2-17; mIgG1 G9.2-17
Kd [6]: 0.3 nM
Kd (rat galectin-9 CRD2 [7]): 0.35 nM
Kd [9]: 0.45 nM
binding result [11]: no binding
Kd [10]: 0.18 nM

B3: G9.1-8m13 Fab (Fab, V domains shown)
VH: EVQLVESGGGLVQPGGSLRLSCAASGFTVSSSSIHWVRQAPGKGLEWVAYIYPYSSSSSYADSVKGRFTISADTSKNTAYLQMNSLRAEDTAVYYCARYSTYSSKWVWGMDYWGQGTLVTVSS
VL: DIQMTQSPSSLSASVGDRVTITCRASQSVSSAVAWYQQKPGKAPKLLIYSASSLYSGVPSRFSGSRSGTDFTLTISSLQPEDFATYYCQQSYYDSNPITFGQGTKVEIKR
notes: Fab purified from E. coli; also called purified G9.1-8m13 Fab; 9.1-8mut13
Kd [12]: 20.7 nM

B4: G9.1-8m13 mIgG2a (antibody, V domains shown)
VH: EVQLVESGGGLVQPGGSLRLSCAASGFTVSSSSIHWVRQAPGKGLEWVAYIYPYSSSSSYADSVKGRFTISADTSKNTAYLQMNSLRAEDTAVYYCARYSTYSSKWVWGMDYWGQGTLVTVSS
VL: DIQMTQSPSSLSASVGDRVTITCRASQSVSSAVAWYQQKPGKAPKLLIYSASSLYSGVPSRFSGSRSGTDFTLTISSLQPEDFATYYCQQSYYDSNPITFGQGTKVEIKR
notes: also called purified G9.1-8m13 mIgG2a molecule
Kd [12]: 0.3 nM
